Reference: patent US20020068323A1 (Amgen, published 2002)

Assays:
murine IL-7Rα = biological target: T1, murine IL-7Rα (murine, UniProt P16872 21-459); test: affinity labeling, DSS cross-linking, transfected 293 cells, SDS-PAGE
T1 construct: whole, on cells; Expressed alone on transiently transfected 293 cells; also called murine IL-7Rα alone
T1 sequence (looked up): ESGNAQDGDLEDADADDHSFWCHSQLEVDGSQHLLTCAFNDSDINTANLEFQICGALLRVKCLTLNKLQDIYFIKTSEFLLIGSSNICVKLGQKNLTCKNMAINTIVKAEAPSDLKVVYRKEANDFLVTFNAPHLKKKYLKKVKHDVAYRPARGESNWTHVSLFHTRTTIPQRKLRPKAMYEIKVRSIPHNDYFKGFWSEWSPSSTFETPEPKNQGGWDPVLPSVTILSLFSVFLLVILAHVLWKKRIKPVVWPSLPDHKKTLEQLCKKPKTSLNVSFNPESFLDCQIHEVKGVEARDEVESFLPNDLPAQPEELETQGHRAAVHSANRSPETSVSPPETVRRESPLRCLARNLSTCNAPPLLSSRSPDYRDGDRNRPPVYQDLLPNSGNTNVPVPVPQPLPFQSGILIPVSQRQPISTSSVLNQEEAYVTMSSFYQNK
Experimental: The binding of TSLP to TSLPR polypeptide in the presence of IL-7Rα was examined in affinity labeling assays. Affinity labeling assays were performed by adding 1-5 nM of ¹²⁵I-labeled TSLP to 5×10⁶ 293 cells transfected with expression constructs for murine IL-7Rα, murine TSLPR polypeptide, murine IL-7Rα and murine TSLPR polypeptide, or human IL-7Rα and murine TSLPR polypeptide. Iodinated TSLP was prepared by adding IODO-GEN (Pierce, Rockford, Ill.) and 2 mCi¹²⁵I to 1 μg of TSLP. A specific activity of approximately 200-300 μCi/μg was obtained by this method. Prior to affinity labeling, 293 cells were transiently transfected using the calcium phosphate method (Eppendorf-5 Prime, Boulder, Colo.). Following a 2 hour incubation with ¹²⁵I-TSLP, cells were cross-linked with 0.1 mg/ml disuccinimidyl suberate (Pierce), lysed in lysis buffer, and the lysates resolved by SDS-PAGE.

[1] = biological target: T2, heterodimer of murine IL-7Rα and murine TSLPR polypeptide (murine, UniProt P16872 21-459); test: displacement binding assay on transfected 293 cells, Scatchard transformation (LIGAND program)
T2 construct: whole, on cells; Both chains co-expressed on transiently transfected 293 cells; also called IL-7Rα/TSLPR polypeptide heterodimer; cells expressing TSLPR polypeptide and IL-7Rα
T2 sequence (P16872 whole entry, looked up): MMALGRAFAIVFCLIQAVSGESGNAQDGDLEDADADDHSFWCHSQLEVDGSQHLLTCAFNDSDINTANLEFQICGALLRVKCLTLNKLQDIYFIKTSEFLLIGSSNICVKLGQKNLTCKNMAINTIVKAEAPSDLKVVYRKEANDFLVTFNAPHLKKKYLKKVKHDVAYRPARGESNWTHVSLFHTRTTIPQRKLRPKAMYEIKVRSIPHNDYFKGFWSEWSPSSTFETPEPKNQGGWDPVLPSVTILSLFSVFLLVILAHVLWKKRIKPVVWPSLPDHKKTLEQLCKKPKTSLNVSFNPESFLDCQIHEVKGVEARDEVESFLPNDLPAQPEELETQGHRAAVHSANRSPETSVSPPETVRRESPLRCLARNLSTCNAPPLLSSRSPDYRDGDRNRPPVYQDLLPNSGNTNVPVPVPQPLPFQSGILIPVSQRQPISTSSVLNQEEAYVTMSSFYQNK
T2 sequence (Q8CII9 whole entry, looked up): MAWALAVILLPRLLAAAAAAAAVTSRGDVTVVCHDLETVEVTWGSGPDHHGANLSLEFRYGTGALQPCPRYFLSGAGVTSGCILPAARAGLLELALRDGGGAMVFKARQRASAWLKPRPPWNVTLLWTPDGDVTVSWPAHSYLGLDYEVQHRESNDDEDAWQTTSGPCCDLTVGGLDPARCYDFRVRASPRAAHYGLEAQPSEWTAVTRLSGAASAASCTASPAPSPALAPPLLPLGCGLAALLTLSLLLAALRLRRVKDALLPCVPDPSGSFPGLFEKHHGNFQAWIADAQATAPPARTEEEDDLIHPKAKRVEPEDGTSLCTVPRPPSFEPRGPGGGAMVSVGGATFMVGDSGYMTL
Experimental: (§1) The binding of TSLP to 293 cells transfected with murine IL-7Rα and murine TSLPR polypeptide, or murine IL-7Rα alone, was analyzed in a displacement binding assay. Following two washes, 1×10⁶ transfected 293 cells were incubated in a constant amount of ¹²⁵I-labeled TSLP (approximately 20,000 cpm) and varying amounts of unlabeled TSLP. Following a 3 hour incubation, treated cells were separated from the medium by centrifugation in olive oil and N-butylphthalate. Cell-bound radioactivity was measured using a gamma counter.
(§2) Analysis of binding data by Scatchard transformation was performed using the LIGAND computer program (Munson and Rodbard, 1980, Anal. Biochem. 107:220-39). […] Due to the very low binding activity of TSLP for cells expressing […], it was not possible to determine the Kd for these cells. Displacement binding assays were also performed using NAG8/7 cells, which constitutively express TSLP receptors and proliferate in response to TSLP (Friend et al., supra; Levin et al., supra). In these displacement binding assays, 5×10⁶ NAG8/7 cells were incubated in a constant amount of ¹²⁵I-labeled TSLP (approximately 180,000 cpm) and varying amounts of unlabeled TSLP. The remainder of the assay was performed as described herein.

[2] = biological target: T3, TSLP receptors constitutively expressed on NAG8/7 cells; test: displacement binding assay with ^125I-TSLP and unlabeled TSLP on NAG8/7 cells, Scatchard transformation
T3 construct: also called single class of receptors
Experimental: as §1, §2

Kd [1]: ~13 nM
Kd [2]: ~2.2 nM
B1: Thymic stromal lymphopoietin (TSLP) (ligand, UniProt Q9JIE6 20-140, looked up)
chain: YNFSNCNFTSITKIYCNIIFHDLTGDLKGAKFEQIEDCESKPACLLKIEYYTLNPIPGCPSLPDKTFARRTREALNDHCPGYPETERNDGTQEMAQEVQNICLNQTSQILRLWYSFMQSPE
binding result (murine IL-7Rα): no binding (tested: 1-5 nM of ^125I-labeled TSLP)
